{
  "source": "paper PMC9095892",
  "about": "(The Journal of Biological Chemistry, 2022)",
  "key": {"[1]": {"test_system": "Cc1cn([C@H]2C[C@H](O)[C@@H](COP(=O)(O)OP(=O)(O)O[C@H]3O[C@H](C)C(=O)[C@H](O)[C@H]3O)O2)c(=O)[nH]c1=O", "experiment": "purified protein", "details": "pH 7.5"}, "crystal structure": {"target": "the molecule itself", "experiment": "crystal structure"}},
  "data": [
    {"molecule": "StrM (SgStrM) (Streptomyces griseus)", "values": [
      {"measurement": "Km", "setting": "[1]", "result": "600 ± 40", "unit": "µM"},
      {"measurement": "kcat/Km", "setting": "[1]", "result": "9100 ± 400", "unit": "M⁻¹ s⁻¹"}
    ]},
    {"molecule": "RmlC (EcRmlC; E. coli RfbC) (Escherichia coli K-12)", "values": [
      {"measurement": "Km", "setting": "[1]", "result": "830 ± 40", "unit": "µM"},
      {"measurement": "kcat/Km", "setting": "[1]", "result": "6600 ± 200", "unit": "M⁻¹ s⁻¹"}
    ]},
    {"molecule": "EvaD (AoEvaD) (Amycolatopsis orientalis)", "values": [
      {"measurement": "Km", "setting": "[1]", "result": "632 ± 98", "unit": "µM"},
      {"measurement": "kcat/Km", "setting": "[1]", "result": "630 ± 70", "unit": "M⁻¹ s⁻¹"}
    ]},
    {"molecule": "Streptomyces griseus StrM (TDP-sugar 3'',5''-epimerase, RmlC ortholog) (enzyme, UniProt P29783 1-200, looked up, also called SgStrM) MRPLSVQGAWLSETRAFADDRGEFQELYSARSLRGALGYDPGVAQVNRSVSRRGVLRGVHFAQLPPSQAKYVTCLSGAVLDVVVDIRTGSPTYRAWEAVRLDDPHRSLYVEAGLGHSFMALTDDAVVVYLTSQGYAAGREHGVHPLDPDLGIAWPDGIEPVLSEKDRQAPGIAEMERRGLLPDYEECLAFRRSLCERGTG", "values": [
      {"measurement": "binding result", "setting": "crystal structure", "result": "binds"}
    ]}
  ]
}
